The values that follow come from patent US20170355775A1 (ELANCO TIERGESUNDHEIT, published 2017).

Test [1] deals with T1, canine CD20 ECD2-mFc fusion protein (canine).
T1 construct: also called cCD20 ECD2-mFc
T1 chain: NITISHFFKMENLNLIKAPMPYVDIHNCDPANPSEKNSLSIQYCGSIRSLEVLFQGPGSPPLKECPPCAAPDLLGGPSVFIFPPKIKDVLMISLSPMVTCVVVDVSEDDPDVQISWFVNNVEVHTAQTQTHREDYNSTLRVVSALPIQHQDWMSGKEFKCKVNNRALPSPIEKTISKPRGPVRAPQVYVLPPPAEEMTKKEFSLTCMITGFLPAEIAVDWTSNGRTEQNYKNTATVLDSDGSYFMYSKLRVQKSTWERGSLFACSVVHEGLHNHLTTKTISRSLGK
Nature of the test: ELISA, antigen coated at 200 ng/well, antibody 5 ug/ml. The protocol:
(§1) This strategy- enabled identification of the specific sequences in canine CD20 that each mAb binds. Binding was tested using a standard ELISA protocol. Briefly, recombinant canine CD20 ECD2-mFc fusion protein and human/canine hybrid variants thereof were diluted in PBS and bound to a 96-well microtiter plate at 200 ng/well by overnight incubation at 4° C. The plate was rinsed three times with PBST buffer, blocked with a solution of 3% BSA in PBS for one hour at 37° C., then rinsed once with PBST. Mouse monoclonal antibodies 1E4, 1G1, and 1G10 were diluted to a concentration of 5 μg/ml in PBS and 50 μl of this dilution was applied to the plate for 1 hour at room temperature. The plate was then rinsed three times with PBST, and Jackson Immunoresearch goat anti-mouse-IgG light chain-specific HRP conjugate (#115-035-174) diluted to 1:5000 in PBS (50 μL) was added to each well, and the plate was incubated for 45 min at room temperature. The plate was washed three times with PBST, then 100 μl of SureBlueTMB substrate (KPL #52-00-03) was added to each well and the plate was incubated for about 10 min at room temperature. The plate was read at 650 nm in a spectrophotometer.
On the technique in general: An ELISA detects its analyte on a solid surface through an enzyme-linked reagent.

Test [2] concerns the target T2, Hum-Can CD20 ECD2 V2 (mFc fusion) (human/canine hybrid).
T2 construct: Described as a hybrid version of the original immunogen CD20 ECD2-mFc
T2 chain: T1 chain with D24N, H26Y, D29E, L39P, I41T, G45Y
The test is described as above. The procedure:
as §1

Test [3] addresses T3, Hum-Can CD20 ECD2 V3 (mFc fusion) (human/canine hybrid).
T3 construct: Described as a hybrid version of the original immunogen CD20 ECD2-mFc
T3 chain: T1 chain with L39P, I41T, G45Y
Described as above. The protocol: as §1

Test [4] has as its target T4, Hum-Can CD20 ECD2 V4 (mFc fusion) (human/canine hybrid).
T4 construct: Described as a hybrid version of the original immunogen CD20 ECD2-mFc
T4 chain: T1 chain with D24N, H26Y, D29E
Described as above. The protocol:
as §1

The target in test [5] is T5, canine CD20 on canine B cells / B cell lymphoma cells (canine, UniProt Q3C2E2 1-297).
T5 construct: whole, on cells; Endogenous CD20 on canine cells
T5 sequence (looked up): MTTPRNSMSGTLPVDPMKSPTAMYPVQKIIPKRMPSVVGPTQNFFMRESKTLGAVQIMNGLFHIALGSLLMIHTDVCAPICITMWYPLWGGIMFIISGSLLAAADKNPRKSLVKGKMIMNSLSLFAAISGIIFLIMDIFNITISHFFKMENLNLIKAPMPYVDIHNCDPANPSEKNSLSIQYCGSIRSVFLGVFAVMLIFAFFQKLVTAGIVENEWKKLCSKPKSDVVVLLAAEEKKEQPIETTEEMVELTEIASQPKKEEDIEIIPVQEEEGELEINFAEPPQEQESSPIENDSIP
Nature of the test: FACS on canine B cell lymphoma cells expressing canine CD20. The procedure: The relative affinities of the mouse monoclonal antibodies 1E4, 1G1, and 1G10 for binding to canine CD20 was determined by fluorescent activated cell sorting (FACS) using canine B cell lymphoma cells, which express canine CD20.

For orientation: Kd means the constant that tells how readily two partners part at equilibrium. Lower therefore signals higher affinity.

Changes are numbered by the printed parent chain.

B1: mouse monoclonal antibody 1G1 (antibody, V domains shown)
VH: EVQLQQSGAELVRPGASVKLSCTASGFNIKDDYMHWVKQRPEQGLEWIGWIDPENGHTKYASKFQGKATITADTSSNTAYLQLSSLTSEDTAVYYCTSLRHYYGSSYVSPHYYWGQGTTLTVSS
VL: DIVMTQSQKFMSRSVGDRVSVTCKASQNVGPNVAWYQQRPGQSPKPLIYSASYRYSGVPDRFTGSGSGTDFTLTISNVQSEDLAEYFCQQYNNYPYTFGGGTKLEIK
notes: Mouse monoclonal antibody from a hybridoma; also called hybridoma antibody 1G1
Regarding B1, the binding result in test [1], in test [2], in test [3] and in test [4] was “binds” in each case. In test [5], this molecule displayed a Kd of 19.8 nM.
